Results as given in PMC314469, “Protein Interaction Networks by Proteome Peptide Scanning” (PLoS Biology, 2004).
Values belong to the binder of their own block, whether it stands above or below them.

Assays:
Assay in all cases: SPOT array
[1] = target: T1, Boi1 SH3 (BOI1_YEAST), P38041
T1 chain: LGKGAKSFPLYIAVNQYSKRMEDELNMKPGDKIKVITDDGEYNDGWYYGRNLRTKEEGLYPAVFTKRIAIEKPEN

[2] = target: T2, Boi2 SH3 (BOI2_YEAST), P39969
T2 chain: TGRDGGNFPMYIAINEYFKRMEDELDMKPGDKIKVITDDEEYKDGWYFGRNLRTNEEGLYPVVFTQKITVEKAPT

[3] = target: T3, Rvs167 SH3 (RV167_YEAST), P39743
T3 chain: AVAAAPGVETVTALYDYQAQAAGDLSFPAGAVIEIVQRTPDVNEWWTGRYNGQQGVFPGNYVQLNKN

[4] = target: T4, Yfr024 SH3 (LSB3_YEAST), P43603
T4 chain: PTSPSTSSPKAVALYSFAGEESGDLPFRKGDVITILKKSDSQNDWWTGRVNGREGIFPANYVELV

[5] = target: T5, Yhr016c SH3 (YSC84_YEAST), P32793
T5 chain: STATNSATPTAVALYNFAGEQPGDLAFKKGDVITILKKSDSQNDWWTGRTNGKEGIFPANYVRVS

normalised SPOT signal, Boehringer light units (BLU); mean over the file's lines of this peptide [1]: 110 | normalised SPOT signal, Boehringer light units (BLU); mean over the file's lines of this peptide [2]: 53.6 | normalised SPOT signal, Boehringer light units (BLU); mean over the file's lines of this peptide [3]: 100 | normalised SPOT signal, Boehringer light units (BLU); mean over the file's lines of this peptide [4]: 150 | normalised SPOT signal, Boehringer light units (BLU); mean over the file's lines of this peptide [5]: 377
B1: YER143W 341-354 (peptide)
chain: SDKPLTPTKTSSTL

normalised SPOT signal, Boehringer light units (BLU); mean over the file's lines of this peptide [1]: 41.3 | normalised SPOT signal, Boehringer light units (BLU); mean over the file's lines of this peptide [2]: 59.9 | normalised SPOT signal, Boehringer light units (BLU); mean over the file's lines of this peptide [3]: 27.8 | normalised SPOT signal, Boehringer light units (BLU); mean over the file's lines of this peptide [4]: 8.4 | normalised SPOT signal, Boehringer light units (BLU); mean over the file's lines of this peptide [5]: 50.7
B2: YHR164C 232-245 (peptide)
chain: SDLPSSPIKAPNVE

normalised SPOT signal, Boehringer light units (BLU); mean over the file's lines of this peptide [1]: 138 | normalised SPOT signal, Boehringer light units (BLU); mean over the file's lines of this peptide [2]: 39.8 | normalised SPOT signal, Boehringer light units (BLU); mean over the file's lines of this peptide [3]: 20.6 | normalised SPOT signal, Boehringer light units (BLU); mean over the file's lines of this peptide [4]: 4580 | normalised SPOT signal, Boehringer light units (BLU); mean over the file's lines of this peptide [5]: 375
B3: YNL139C 1447-1460 (peptide)
chain: SELPTRPSKSKTYN

normalised SPOT signal, Boehringer light units (BLU); mean over the file's lines of this peptide [1]: 514 | normalised SPOT signal, Boehringer light units (BLU); mean over the file's lines of this peptide [2]: 105 | normalised SPOT signal, Boehringer light units (BLU); mean over the file's lines of this peptide [3]: 67.3 | normalised SPOT signal, Boehringer light units (BLU); mean over the file's lines of this peptide [4]: 2420 | normalised SPOT signal, Boehringer light units (BLU); mean over the file's lines of this peptide [5]: 543
B4: YDL033C 13-26 (peptide)
chain: SASPYRPQRLPAKF

normalised SPOT signal, Boehringer light units (BLU); mean over the file's lines of this peptide [1]: 873 | normalised SPOT signal, Boehringer light units (BLU); mean over the file's lines of this peptide [2]: 141 | normalised SPOT signal, Boehringer light units (BLU); mean over the file's lines of this peptide [3]: 73 | normalised SPOT signal, Boehringer light units (BLU); mean over the file's lines of this peptide [4]: 2690 | normalised SPOT signal, Boehringer light units (BLU); mean over the file's lines of this peptide [5]: 31.6
B5: YJL194W 2-15 (peptide)
chain: SAIPITPTKRIRRN

normalised SPOT signal, Boehringer light units (BLU); mean over the file's lines of this peptide [1]: 54.4 | normalised SPOT signal, Boehringer light units (BLU); mean over the file's lines of this peptide [2]: 38.8 | normalised SPOT signal, Boehringer light units (BLU); mean over the file's lines of this peptide [3]: 24.9 | normalised SPOT signal, Boehringer light units (BLU); mean over the file's lines of this peptide [4]: 196 | normalised SPOT signal, Boehringer light units (BLU); mean over the file's lines of this peptide [5]: 158
B6: YNR016C 154-167 (peptide)
chain: SENPLLPEKLSQSK

normalised SPOT signal, Boehringer light units (BLU); mean over the file's lines of this peptide [1]: 123 | normalised SPOT signal, Boehringer light units (BLU); mean over the file's lines of this peptide [2]: 56.3 | normalised SPOT signal, Boehringer light units (BLU); mean over the file's lines of this peptide [3]: 50.3 | normalised SPOT signal, Boehringer light units (BLU); mean over the file's lines of this peptide [4]: 774 | normalised SPOT signal, Boehringer light units (BLU); mean over the file's lines of this peptide [5]: 136
B7: YDR419W 203-216 (peptide)
chain: SHLPLIPEKIKSLK

normalised SPOT signal, Boehringer light units (BLU); mean over the file's lines of this peptide [1]: 138 | normalised SPOT signal, Boehringer light units (BLU); mean over the file's lines of this peptide [2]: 84.8 | normalised SPOT signal, Boehringer light units (BLU); mean over the file's lines of this peptide [3]: 29 | normalised SPOT signal, Boehringer light units (BLU); mean over the file's lines of this peptide [4]: 2620 | normalised SPOT signal, Boehringer light units (BLU); mean over the file's lines of this peptide [5]: 305
B8: YNL138W 352-365 (peptide)
chain: SGPPPRPKKPSTLK

normalised SPOT signal, Boehringer light units (BLU); mean over the file's lines of this peptide [1]: 75.4 | normalised SPOT signal, Boehringer light units (BLU); mean over the file's lines of this peptide [2]: 28.7 | normalised SPOT signal, Boehringer light units (BLU); mean over the file's lines of this peptide [3]: 68.3 | normalised SPOT signal, Boehringer light units (BLU); mean over the file's lines of this peptide [4]: 322 | normalised SPOT signal, Boehringer light units (BLU); mean over the file's lines of this peptide [5]: 290
B9: YPR071W 44-57 (peptide)
chain: SFVPFPPFKLLTFD

normalised SPOT signal, Boehringer light units (BLU); mean over the file's lines of this peptide [1]: 342 | normalised SPOT signal, Boehringer light units (BLU); mean over the file's lines of this peptide [2]: 350 | normalised SPOT signal, Boehringer light units (BLU); mean over the file's lines of this peptide [3]: 232 | normalised SPOT signal, Boehringer light units (BLU); mean over the file's lines of this peptide [4]: 15400 | normalised SPOT signal, Boehringer light units (BLU); mean over the file's lines of this peptide [5]: 998
B10: YOR254C 500-513 (peptide)
chain: SFAPFFPTKRRGSW

normalised SPOT signal, Boehringer light units (BLU); mean over the file's lines of this peptide [1]: 80.9 | normalised SPOT signal, Boehringer light units (BLU); mean over the file's lines of this peptide [2]: 85 | normalised SPOT signal, Boehringer light units (BLU); mean over the file's lines of this peptide [3]: 50.4 | normalised SPOT signal, Boehringer light units (BLU); mean over the file's lines of this peptide [4]: 1340 | normalised SPOT signal, Boehringer light units (BLU); mean over the file's lines of this peptide [5]: 99.3
B11: YDL203C 329-342 (peptide)
chain: SHQPYLPIKNKNIV

normalised SPOT signal, Boehringer light units (BLU); mean over the file's lines of this peptide [1]: 94.4 | normalised SPOT signal, Boehringer light units (BLU); mean over the file's lines of this peptide [2]: 77.6 | normalised SPOT signal, Boehringer light units (BLU); mean over the file's lines of this peptide [3]: 51.8 | normalised SPOT signal, Boehringer light units (BLU); mean over the file's lines of this peptide [4]: 94.3 | normalised SPOT signal, Boehringer light units (BLU); mean over the file's lines of this peptide [5]: 46.4
B12: YMR182C 187-200 (peptide)
chain: SDTPASPSKVQSFD

normalised SPOT signal, Boehringer light units (BLU); mean over the file's lines of this peptide [1]: 72.3 | normalised SPOT signal, Boehringer light units (BLU); mean over the file's lines of this peptide [2]: 33.1 | normalised SPOT signal, Boehringer light units (BLU); mean over the file's lines of this peptide [3]: 20100 | normalised SPOT signal, Boehringer light units (BLU); mean over the file's lines of this peptide [4]: 49200 | normalised SPOT signal, Boehringer light units (BLU); mean over the file's lines of this peptide [5]: 43500
B13: YGL028C 19-32 (peptide)
chain: SALPILPKREVVTR

normalised SPOT signal, Boehringer light units (BLU); mean over the file's lines of this peptide [1]: 238 | normalised SPOT signal, Boehringer light units (BLU); mean over the file's lines of this peptide [2]: 37.5 | normalised SPOT signal, Boehringer light units (BLU); mean over the file's lines of this peptide [3]: 48.9 | normalised SPOT signal, Boehringer light units (BLU); mean over the file's lines of this peptide [4]: 186 | normalised SPOT signal, Boehringer light units (BLU); mean over the file's lines of this peptide [5]: 156
B14: YGL197W 1382-1395 (peptide)
chain: SAFPQSPIRAYGST

normalised SPOT signal, Boehringer light units (BLU); mean over the file's lines of this peptide [1]: 111 | normalised SPOT signal, Boehringer light units (BLU); mean over the file's lines of this peptide [2]: 21.9 | normalised SPOT signal, Boehringer light units (BLU); mean over the file's lines of this peptide [3]: 10 | normalised SPOT signal, Boehringer light units (BLU); mean over the file's lines of this peptide [4]: 3670 | normalised SPOT signal, Boehringer light units (BLU); mean over the file's lines of this peptide [5]: 104
B15: YOR059C 252-265 (peptide)
chain: SHAPTKPTKTYKKW

normalised SPOT signal, Boehringer light units (BLU); mean over the file's lines of this peptide [1]: 1670 | normalised SPOT signal, Boehringer light units (BLU); mean over the file's lines of this peptide [2]: 37.1 | normalised SPOT signal, Boehringer light units (BLU); mean over the file's lines of this peptide [3]: 15.8 | normalised SPOT signal, Boehringer light units (BLU); mean over the file's lines of this peptide [4]: 440 | normalised SPOT signal, Boehringer light units (BLU); mean over the file's lines of this peptide [5]: 0
B16: YHR184W 124-137 (peptide)
chain: SELPKSPYRQKPTQ

normalised SPOT signal, Boehringer light units (BLU); mean over the file's lines of this peptide [1]: 33.8 | normalised SPOT signal, Boehringer light units (BLU); mean over the file's lines of this peptide [2]: 54.4 | normalised SPOT signal, Boehringer light units (BLU); mean over the file's lines of this peptide [3]: 105 | normalised SPOT signal, Boehringer light units (BLU); mean over the file's lines of this peptide [4]: 2060 | normalised SPOT signal, Boehringer light units (BLU); mean over the file's lines of this peptide [5]: 896
B17: YGR040W 221-234 (peptide)
chain: SGKPLFPGRDYHHQ

normalised SPOT signal, Boehringer light units (BLU); mean over the file's lines of this peptide [1]: 109 | normalised SPOT signal, Boehringer light units (BLU); mean over the file's lines of this peptide [2]: 28 | normalised SPOT signal, Boehringer light units (BLU); mean over the file's lines of this peptide [3]: 196 | normalised SPOT signal, Boehringer light units (BLU); mean over the file's lines of this peptide [4]: 4000 | normalised SPOT signal, Boehringer light units (BLU); mean over the file's lines of this peptide [5]: 407
B18: YDR464W 666-679 (peptide)
chain: SGKPKKPYRRWTPE

normalised SPOT signal, Boehringer light units (BLU); mean over the file's lines of this peptide [1]: 196 | normalised SPOT signal, Boehringer light units (BLU); mean over the file's lines of this peptide [2]: 47 | normalised SPOT signal, Boehringer light units (BLU); mean over the file's lines of this peptide [3]: 20.2 | normalised SPOT signal, Boehringer light units (BLU); mean over the file's lines of this peptide [4]: 38.9 | normalised SPOT signal, Boehringer light units (BLU); mean over the file's lines of this peptide [5]: 45.7
B19: YOR057W 166-179 (peptide)
chain: SHSPISPLKIETAP

normalised SPOT signal, Boehringer light units (BLU); mean over the file's lines of this peptide [1]: 32.5 | normalised SPOT signal, Boehringer light units (BLU); mean over the file's lines of this peptide [2]: 26.6 | normalised SPOT signal, Boehringer light units (BLU); mean over the file's lines of this peptide [3]: 40.3 | normalised SPOT signal, Boehringer light units (BLU); mean over the file's lines of this peptide [4]: 52.2 | normalised SPOT signal, Boehringer light units (BLU); mean over the file's lines of this peptide [5]: 303
B20: YER032W 443-456 (peptide)
chain: SEEPTSPTRQVNPE

normalised SPOT signal, Boehringer light units (BLU); mean over the file's lines of this peptide [1]: 46400 | normalised SPOT signal, Boehringer light units (BLU); mean over the file's lines of this peptide [2]: 10000 | normalised SPOT signal, Boehringer light units (BLU); mean over the file's lines of this peptide [3]: 77800 | normalised SPOT signal, Boehringer light units (BLU); mean over the file's lines of this peptide [4]: 49400 | normalised SPOT signal, Boehringer light units (BLU); mean over the file's lines of this peptide [5]: 97900
B21: YDL156W 62-75 (peptide)
chain: SASPTLPTRRSRRL

normalised SPOT signal, Boehringer light units (BLU); mean over the file's lines of this peptide [1]: 577 | normalised SPOT signal, Boehringer light units (BLU); mean over the file's lines of this peptide [2]: 65.5 | normalised SPOT signal, Boehringer light units (BLU); mean over the file's lines of this peptide [3]: 25500 | normalised SPOT signal, Boehringer light units (BLU); mean over the file's lines of this peptide [4]: 32900 | normalised SPOT signal, Boehringer light units (BLU); mean over the file's lines of this peptide [5]: 30000
B22: YJR083C 215-228 (peptide)
chain: SGPPLLPPRNTMKN
